Measured values taken from publication doi:10.1101/2025.03.15.643416.

Target: MMLVRT-WT (Moloney murine leukemia virus, UniProt P03355 660-1330)
Test: DSF thermal shift

B1: T/P (RNA template/DNA primer) (DNA:RNA)
DNA: TGGAATCAGGTGTCGCACTCTG
RNA: AACAGAGUGCGACACCUGAUUCCAU
binding result: binds
